Measured values taken from doi:10.1101/2022.01.05.474964 (bioRxiv, 2022).

Target: the molecule itself
Assay: SEC-MALS

B1: full-length human BicD2 isoform 2 (natural protein, UniProt Q8TD16-2 1-855, looked up)
chain: MSAPSEEEEYARLVMEAQPEWLRAEVKRLSHELAETTREKIQAAEYGLAVLEEKHQLKLQFEELEVDYEAIRSEMEQLKEAFGQAHTNHKKVAADGESREESLIQESASKEQYYVRKVLELQTELKQLRNVLTNTQSENERLASVAQELKEINQNVEIQRGRLRDDIKEYKFREARLLQDYSELEEENISLQKQVSVLRQNQVEFEGLKHEIKRLEEETEYLNSQLEDAIRLKEISERQLEEALETLKTEREQKNSLRKELSHYMSINDSFYTSHLHVSLDGLKFSDDAAEPNNDAEALVNGFEHGGLAKLPLDNKTSTPKKEGLAPPSPSLVSDLLSELNISEIQKLKQQLMQMEREKAGLLATLQDTQKQLEHTRGSLSEQQEKVTRLTENLSALRRLQASKERQTALDNEKDRDSHEDGDYYEVDINGPEILACKYHVAVAEAGELREQLKALRSTHEAREAQHAEEKGRYEAEGQALTEKVSLLEKASRQDRELLARLEKELKKVSDVAGETQGSLSVAQDELVTFSEELANLYHHVCMCNNETPNRVMLDYYREGQGGAGRTSPGGRTSPEARGRRSPILLPKGLLAPEAGRADGGTGDSSPSPGSSLPSPLSDPRREPMNIYNLIAIIRDQIKHLQAAVDRTTELSRQRIASQELGPAVDKDKEALMEEILKLKSLLSTKREQITTLRTVLKANKQTAEVALANLKSKYENEKAMVTETMMKLRNELKALKEDAATFSSLRAMFATRCDEYITQLDEMQRQLAAAEDEKKTLNSLLRMAIQQKLALTQRLELLELDHEQTRRGRAKAAPKTKPATPSVSHTCACASDRAEGTGLANQVFCSEKHSIYCD
- stoichiometry N: 2
